{"source": "paper PMC11193727", "about": "“Neutralizing antibodies reveal cryptic vulnerabilities and interdomain crosstalk in the porcine deltacoronavirus spike protein” (Nature Communications, 2024)", "key": {"[1]": {"molecular_target": "PDCoV S ectodomain, prefusion S trimer (porcine deltacoronavirus (PDCoV))", "assay": "cryo-EM structure; PDCoV S ectodomain (10.5 µM protomer) incubated with 22C10 Fab for about 10 min at room temperature"}, "[2]": {"molecular_target": "T1, PDCoV S ectodomain, prefusion S trimer (porcine deltacoronavirus (PDCoV))", "T1 construct": "also called prefusion PDCoV S trimer; trimeric S ectodomain; source: HEK-293T, transient (pCAGGS), purified from culture supernatant (streptactin beads); not shown: GCN4 trimerization motif, C-terminal, kept; Strep-tag, C-terminal, kept", "T1 chain": "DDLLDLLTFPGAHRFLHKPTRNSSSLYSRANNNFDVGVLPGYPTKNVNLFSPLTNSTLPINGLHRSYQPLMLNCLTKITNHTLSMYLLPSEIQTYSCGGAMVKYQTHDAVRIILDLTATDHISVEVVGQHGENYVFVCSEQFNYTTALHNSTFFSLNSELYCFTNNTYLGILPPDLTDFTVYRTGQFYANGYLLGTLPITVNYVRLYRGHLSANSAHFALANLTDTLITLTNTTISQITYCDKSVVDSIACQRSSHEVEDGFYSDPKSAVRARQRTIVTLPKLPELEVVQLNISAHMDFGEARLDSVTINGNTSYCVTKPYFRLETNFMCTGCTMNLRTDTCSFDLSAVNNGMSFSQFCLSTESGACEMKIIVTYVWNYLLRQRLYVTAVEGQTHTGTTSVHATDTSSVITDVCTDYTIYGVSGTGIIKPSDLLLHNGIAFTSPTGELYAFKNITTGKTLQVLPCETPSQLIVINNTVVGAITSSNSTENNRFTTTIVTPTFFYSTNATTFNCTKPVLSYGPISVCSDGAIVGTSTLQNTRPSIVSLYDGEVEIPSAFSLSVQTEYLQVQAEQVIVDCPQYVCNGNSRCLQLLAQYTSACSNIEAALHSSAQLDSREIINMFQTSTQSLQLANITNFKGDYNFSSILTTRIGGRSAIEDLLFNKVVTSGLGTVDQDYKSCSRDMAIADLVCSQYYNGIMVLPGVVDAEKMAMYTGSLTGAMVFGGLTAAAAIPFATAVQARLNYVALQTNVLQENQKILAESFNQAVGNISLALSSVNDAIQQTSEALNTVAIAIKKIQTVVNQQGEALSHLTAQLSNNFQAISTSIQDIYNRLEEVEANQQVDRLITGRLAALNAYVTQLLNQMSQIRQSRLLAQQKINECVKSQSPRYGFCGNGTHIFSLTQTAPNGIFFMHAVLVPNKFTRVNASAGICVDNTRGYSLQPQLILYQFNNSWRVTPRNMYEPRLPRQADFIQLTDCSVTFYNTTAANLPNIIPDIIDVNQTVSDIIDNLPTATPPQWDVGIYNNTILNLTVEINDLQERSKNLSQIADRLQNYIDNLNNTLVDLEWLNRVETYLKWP", "assay": "BLI; monomeric S1B or untreated trimeric S immobilised on anti-strep mAb-coated protein A biosensor; mAb (50 µg/ml) or APN (100 µg/ml) for 30 min", "conditions": "both partners purified"}, "[3]": {"molecular_target": "recombinant PDCoV S1 monomer (Porcine deltacoronavirus …, UniProt W8Q9Y7)", "assay": "BLI", "conditions": "both partners purified"}, "PDCoV S1A domain": {"molecular_target": "T2, PDCoV S1A domain (Porcine deltacoronavirus …, UniProt W8Q9Y7)", "T2 construct": "also called N-terminal domain; NTD; source: HEK-293T, transient (pCAGGS), purified from culture supernatant (streptactin beads); not shown: triple Strep-tag, C-terminal, kept", "assay": "ELISA; purified Strep-tagged S antigens (S trimer, S1B, S1A; 1 µg/ml) coated on Maxisorp plates; human mAbs in fivefold dilutions from 10 µg/ml, RT 1 h; detection with HRP anti-human IgG", "conditions": "both partners purified"}, "[4]": {"molecular_target": "T3, full length PDCoV S protein expressed on Huh7 cells (porcine deltacoronavirus (PDCoV))", "T3 construct": "source: Huh7, transfected (pCAGGS), formaldehyde-fixed cells", "T3 chain": "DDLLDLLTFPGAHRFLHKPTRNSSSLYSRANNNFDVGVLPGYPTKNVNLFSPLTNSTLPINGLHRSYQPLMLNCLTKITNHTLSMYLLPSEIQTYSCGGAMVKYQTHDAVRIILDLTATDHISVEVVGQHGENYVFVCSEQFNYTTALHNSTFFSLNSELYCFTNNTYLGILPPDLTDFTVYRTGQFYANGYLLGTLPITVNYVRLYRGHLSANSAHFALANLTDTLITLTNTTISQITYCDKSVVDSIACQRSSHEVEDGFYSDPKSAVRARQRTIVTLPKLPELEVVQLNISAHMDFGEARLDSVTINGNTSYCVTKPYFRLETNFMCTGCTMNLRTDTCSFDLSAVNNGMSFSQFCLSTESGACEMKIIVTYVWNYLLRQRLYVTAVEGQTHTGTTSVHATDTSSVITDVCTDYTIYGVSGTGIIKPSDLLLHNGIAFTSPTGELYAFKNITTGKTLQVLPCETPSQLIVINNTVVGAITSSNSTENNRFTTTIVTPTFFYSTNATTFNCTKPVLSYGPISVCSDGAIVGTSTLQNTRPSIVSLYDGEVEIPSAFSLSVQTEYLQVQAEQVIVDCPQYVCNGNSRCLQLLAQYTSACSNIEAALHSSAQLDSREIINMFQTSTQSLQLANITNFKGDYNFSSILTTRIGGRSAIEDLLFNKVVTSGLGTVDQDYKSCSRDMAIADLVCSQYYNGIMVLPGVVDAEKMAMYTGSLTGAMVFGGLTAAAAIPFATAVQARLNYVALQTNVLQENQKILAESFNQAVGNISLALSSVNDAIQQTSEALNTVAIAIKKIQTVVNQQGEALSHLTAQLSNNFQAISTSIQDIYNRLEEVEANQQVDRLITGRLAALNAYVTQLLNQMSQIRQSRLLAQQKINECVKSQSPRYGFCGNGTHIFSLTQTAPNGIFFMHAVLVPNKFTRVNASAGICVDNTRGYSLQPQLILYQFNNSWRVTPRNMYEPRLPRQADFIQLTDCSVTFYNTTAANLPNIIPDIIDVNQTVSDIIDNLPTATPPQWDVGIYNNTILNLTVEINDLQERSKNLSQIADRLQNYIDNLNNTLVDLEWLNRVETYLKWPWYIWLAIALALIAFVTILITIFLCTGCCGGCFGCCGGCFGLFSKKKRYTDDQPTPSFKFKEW", "assay": "immunostaining of cells or tissue", "conditions": "one partner purified"}, "[5]": {"molecular_target": "T4, recombinant PDCoV S1 monomer (porcine deltacoronavirus (PDCoV))", "T4 chain": "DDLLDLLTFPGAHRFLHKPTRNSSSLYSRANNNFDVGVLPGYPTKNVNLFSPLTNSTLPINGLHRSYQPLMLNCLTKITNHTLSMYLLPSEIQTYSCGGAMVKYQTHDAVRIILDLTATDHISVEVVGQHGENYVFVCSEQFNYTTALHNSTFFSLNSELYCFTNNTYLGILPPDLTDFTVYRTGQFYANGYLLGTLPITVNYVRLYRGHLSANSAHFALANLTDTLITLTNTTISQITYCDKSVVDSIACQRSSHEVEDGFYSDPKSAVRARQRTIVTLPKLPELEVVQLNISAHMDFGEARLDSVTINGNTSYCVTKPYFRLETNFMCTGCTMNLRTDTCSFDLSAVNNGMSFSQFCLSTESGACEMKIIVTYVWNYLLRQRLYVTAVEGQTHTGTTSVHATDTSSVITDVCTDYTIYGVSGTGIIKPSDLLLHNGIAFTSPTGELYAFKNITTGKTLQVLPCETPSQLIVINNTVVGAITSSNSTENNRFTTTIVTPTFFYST", "assay": "BLI"}, "[6]": {"molecular_target": "T5, PDCoV S1 (wild type), ELISA antigen (Porcine deltacoronavirus …, UniProt W8Q9Y7)", "T5 construct": "source: HEK-293T, purified (Protein A Sepharose)", "assay": "ELISA", "conditions": "both partners purified"}}, "data": [{"molecule": "PDCoV S ectodomain, prefusion S trimer (domain or fragment)", "values": [{"measurement": "stoichiometry N", "setting": "[1]", "value": 3}]}, {"molecule": "22C10 human IgG1 monoclonal antibody (antibody, V domains shown, IgG1, kappa; also called mAb 22C10; source: HEK-293T, transient, purified (Protein A Sepharose)) VH: EVRLLESGGGLVQPGGSLRLSCAASGFTFSSYAMSWVRQAPGKGLEWVSIITDSGGGTYFADSVKGRFTISRDNSKNTLYLQMNSLRAEDTALYYCVKVGFCYSSTCPFDYWGQGTLVTVSS VL: ELVMTQSPATLSVSPGERATLSCRASQSVSSDLAWYQQRPGRAPRLLIYDASTRTTGIPARFSGSGSGTEFTLTISSLQSEDFAVYYCHQYNNWLTFGQGTRLEIK", "values": [{"measurement": "binding result", "setting": "[2]", "value": "binds"}, {"measurement": "binding result", "setting": "[3]", "value": "binds"}, {"measurement": "binding result", "setting": "PDCoV S1A domain", "value": "binds"}, {"measurement": "binding result", "setting": "[4]", "value": "binds"}, {"measurement": "Kd", "setting": "[5]", "value": 46.6, "unit": "nM"}, {"measurement": "binding result", "setting": "[6]", "value": "binds"}]}, {"molecule": "42H3 human IgG1 monoclonal antibody (antibody, V domains shown, also called S1B neutralizer) VH: QVQLVESGGGVVQPGRSLRLSCAASGFTFSSYDMHWVRQAPGKGLEWVAVIWNDGSNEYYADSVKGRFIISRDNSKNTLYLQMNSLRAEDTAVYYCARRGIIMVRGLLGYWGQGTLVTVSS VL: DIQMTQSPPSLSASVGDRVTITCRASQGISNYLAWHQQKPGKVPKLLIYTASTLQSGVPSRFSGSGSGTDFTLTISSLQPEDVATYYCQKYNSAPFTFGPGTKVDIK", "values": [{"measurement": "binding result", "setting": "[3]", "value": "binds"}, {"measurement": "Kd", "setting": "[5]", "value": 42, "unit": "nM"}]}, {"molecule": "46E6 human IgG1 monoclonal antibody (antibody, V domains shown, IgG1, kappa; also called S1B neutralizer) VH: QVQLVESGGGVVQPGRSLRLSCAASGFTFSSYAMHWVRQAPGKGLEWVAVIWRDGSNEFYADSVKGRFTISRDNSKDTLYLQMNSLRAEDTAVYYCARRGIIMVRGLLGYWGQGTLVTVSS VL: DIQMTQSPPSLSASVGDRVTITCRASQGISNYLAWHQQKPGKVPKLLIYTASTLQSGVPSRFSGSGSGTDFTLTISSLQPEDVATYYCQKYNSAPFTFGPGTKVDIK", "values": [{"measurement": "binding result", "setting": "[3]", "value": "binds"}, {"measurement": "Kd", "setting": "[5]", "value": 19.9, "unit": "nM"}]}]}
